We go through one molecule from patent US20240301086A1 (APTEVO RESEARCH AND DEVELOPMENT, published 2024).

Bounds are passed on as bounds.

One assay deals with human Fcγ receptor I (human, UniProt P12314 16-288). The assay is described as follows: SPR (Biacore T200), construct amine-coupled, Fcγ receptor as analyte. The method, then:
(§1) The Fc region incorporated into anti-PSMA bispecific constructs contained mutations intended to reduce or abolish binding to common human and cynomolgus Fc gamma receptors. SPR experiments were conducted at 25° C. in HBS-EP+ with 0.2% BSA buffer on a Biacore T200 system to evaluate the impact of these mutations on binding. For these experiments, three flow cells of a CM5 sensor chip were immobilized with anti-PSMA bispecifics by standard amine coupling to a response level of ˜2000 RU. A blank immobilization was performed on flow cell #1 for purposes of background signal subtraction. Both human and cynomolgus monkey Fcγ receptors (purchased from R&D Systems) were diluted in HBS-EP+ with 0.2% BSA to 4-6 μM and then flowed as analytes at 30 μL/min for 120 seconds followed by a 240 second dissociation step. No regeneration step was required. Blank-subtracted sensorgrams were visually inspected for binding to each of the Fcγ receptor proteins. […] Attenuated binding to Fcγ receptors IIA (both polymorphic variants) and IIB/C was observed. PSMA01107 and PSMA01108 share the same Fc amino acid sequence and therefore equivalent Fcγ receptor binding behavior was expected.

Assay [1] addresses human Fcγ receptor IIIA, V176 variant (human, UniProt P08637 17-208). The assay is described as above. The method, then: as §1
Assay [2] addresses human Fcγ receptor IIIA, F176 variant (human, UniProt P08637 17-208). Described as above. The method, then: as §1
The target of the next assay is human Fcγ receptor IIIB (human, UniProt O75015 17-200). The description is as above. As to the method: as §1
Assay [3] deals with T1, cynomolgus Fcγ receptor III (cynomolgus monkey, UniProt Q8SPW2 17-208).
T1 construct: Called recombinant, soluble; also called Cyno RIII
The assay is described as follows: SPR (Biacore T200), construct amine-coupled, soluble cyno Fcγ receptor as analyte. The method, then: as §1

Assay [4] has as its target T2, Full-length Human PSMA (TSC435), on cells (human, UniProt Q04609 1-750).
T2 construct: also called CHOK1SV/huPSMA; PSMA on C4-2B, 22RV1, LNCaP, MDA-PCa-2b cells
The assay is described as follows: flow cytometry on C4-2B cells, PE goat anti-human IgG Fc secondary, MFI (median). As to the method: (§2) Constructs were initially tested in CD3ε and PSMA binding assays on Jurkat and C4-2B cells. Cells were labelled at approximately 100,000 cells per well, in 96-well plates, with serial dilutions of bispecific constructs ranging in concentration from of 0.1 to 300 nM, for 30 min on ice. Primary label was followed by washes and incubation with PE-labeled minimum cross species reactive secondary antibody, goat anti-human IgG Fcγ, F(ab′)2 (Jackson Laboratory) for 30 minutes on ice. Washes and incubation were done in staining buffer (PBS with 0.2% BSA and 2 mM EDTA). Cells were collected using an BD™ LSRII or a BD FACSymphony™ flow cytometer (BD Biosciences) and analyzed by FlowJo flow cytometry analysis software. Median fluorescence intensity (MFI) of bound molecules on cells was determined after exclusion of doublets. Results were plotted and nonlinear regression analysis to determine EC50 values was performed using GraphPad Prism 7© graphing and statistics software.

Assay [5] has as its target T2, Full-length Human PSMA (TSC435), on …. The description is as above. As to the method:
as §2
The source holds these as a separate data set.

In assay [6] the target is T3, human CD3ε in the TCR/CD3 complex on Jurkat cells (human, UniProt P07766 23-207).
T3 construct: whole, on cells; On the cells it stands in the whole TCR/CD3 complex; also called CD3 (+) cells; CD3-expressing Jurkat cells
The assay is described as follows: flow cytometry on Jurkat cells, PE goat anti-human IgG Fc secondary, MFI (median). The method, then:
as §2

In assay [7] the target is T3, human CD3ε in the TCR/CD3 complex on …. The description is as above. The method, then: as §2
The source holds these as a separate data set.

The target is the same in assay [8]. The assay is described as follows: flow cytometry, drawn table 'On- Cell Binding Parameters', row 'Human CD3 binding affinity'. The method, then:
as §2

Assay [9] deals with T2, Full-length Human PSMA (TSC435), on …. The assay can be described thus: flow cytometry, drawn table 'On- Cell Binding Parameters', row 'Human PSMA binding affinity'.
Assay [10] concerns the target T4, Full-length cynomolgus monkey PSMA (TSC308), on cells (cynomolgus monkey, UniProt Q04609 1-750 (human entry)).
T4 construct: also called cyno PSMA; CHOK1SV/cynoPSMA
T4 chain: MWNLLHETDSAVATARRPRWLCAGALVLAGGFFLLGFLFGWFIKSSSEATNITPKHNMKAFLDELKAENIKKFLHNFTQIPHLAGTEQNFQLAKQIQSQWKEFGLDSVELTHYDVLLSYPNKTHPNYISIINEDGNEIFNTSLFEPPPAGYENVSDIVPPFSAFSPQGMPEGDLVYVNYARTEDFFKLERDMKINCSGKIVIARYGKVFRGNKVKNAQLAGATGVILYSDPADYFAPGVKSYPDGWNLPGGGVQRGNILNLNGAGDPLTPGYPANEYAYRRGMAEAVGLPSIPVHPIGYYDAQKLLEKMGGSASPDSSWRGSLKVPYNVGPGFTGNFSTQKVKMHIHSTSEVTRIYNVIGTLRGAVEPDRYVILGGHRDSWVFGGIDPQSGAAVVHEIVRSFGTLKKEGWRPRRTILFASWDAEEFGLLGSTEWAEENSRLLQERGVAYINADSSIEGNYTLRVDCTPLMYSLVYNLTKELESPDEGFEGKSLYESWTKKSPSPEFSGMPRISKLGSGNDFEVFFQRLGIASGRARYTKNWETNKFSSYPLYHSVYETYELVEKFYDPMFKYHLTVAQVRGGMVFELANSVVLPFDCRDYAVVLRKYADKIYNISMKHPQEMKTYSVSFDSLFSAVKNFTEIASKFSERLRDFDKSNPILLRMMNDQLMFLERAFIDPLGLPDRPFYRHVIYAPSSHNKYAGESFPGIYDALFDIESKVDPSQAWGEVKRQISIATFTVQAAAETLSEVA
The assay can be described thus: flow cytometry on CHO-CynoPSMA cells, Median (PE); drawn table row 'Cyno PSMA binding affinity'.

T3 sequence (P07766 23-207, one chain of several): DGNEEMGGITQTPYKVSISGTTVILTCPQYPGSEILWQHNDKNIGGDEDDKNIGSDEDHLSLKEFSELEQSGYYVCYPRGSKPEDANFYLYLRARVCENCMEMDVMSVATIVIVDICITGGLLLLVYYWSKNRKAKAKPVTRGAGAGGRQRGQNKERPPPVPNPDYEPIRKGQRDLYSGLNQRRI
human Fcγ receptor I, sequence (P12314 16-288): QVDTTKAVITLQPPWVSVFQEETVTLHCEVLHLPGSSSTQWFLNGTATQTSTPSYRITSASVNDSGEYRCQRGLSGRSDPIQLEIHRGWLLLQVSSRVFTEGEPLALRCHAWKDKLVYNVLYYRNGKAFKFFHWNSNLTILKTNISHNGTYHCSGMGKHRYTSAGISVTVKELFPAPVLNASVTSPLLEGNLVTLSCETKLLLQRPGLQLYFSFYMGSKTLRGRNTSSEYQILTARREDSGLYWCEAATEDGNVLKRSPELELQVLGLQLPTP
human Fcγ receptor IIIB, sequence (O75015 17-200): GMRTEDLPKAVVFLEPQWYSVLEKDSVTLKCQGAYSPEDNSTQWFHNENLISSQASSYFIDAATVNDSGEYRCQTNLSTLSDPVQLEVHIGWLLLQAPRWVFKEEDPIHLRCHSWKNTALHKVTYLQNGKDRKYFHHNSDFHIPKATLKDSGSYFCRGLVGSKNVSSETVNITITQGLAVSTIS
human Fcγ receptor IIIA, F176 variant, sequence (P08637 17-208, change not shown): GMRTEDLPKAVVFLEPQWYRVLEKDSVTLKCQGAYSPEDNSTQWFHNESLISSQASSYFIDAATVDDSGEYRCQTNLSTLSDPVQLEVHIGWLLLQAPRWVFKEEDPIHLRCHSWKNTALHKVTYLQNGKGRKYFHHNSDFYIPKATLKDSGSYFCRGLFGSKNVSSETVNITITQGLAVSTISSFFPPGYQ
human Fcγ receptor IIIA, V176 variant, sequence (P08637 other isoform, or with tags, fused parts or gaps mutant): as the sequence (P08637 17-208, change not shown) above, with F160V counted along it
T1 sequence (Q8SPW2 17-208): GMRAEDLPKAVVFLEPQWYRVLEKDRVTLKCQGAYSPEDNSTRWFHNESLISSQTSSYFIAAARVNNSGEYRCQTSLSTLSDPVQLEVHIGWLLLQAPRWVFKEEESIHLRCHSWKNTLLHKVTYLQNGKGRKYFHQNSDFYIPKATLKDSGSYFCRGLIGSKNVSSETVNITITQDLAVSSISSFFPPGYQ

B1: PSMA01108 Anti-PSMA scFv x Fc x linker x Anti CD3 scFv; Anti PSMA scFv x Fc (bispecific antibody)
chain 1: QVQLVQSGAEVKKPGASVKVSCKASGYTFTDYYMHWVRQAPGQGLEWMGYFNPYNDYTRYAQKFQGRVTMTRDTSTSTVYMELSSLRSEDTAVYYCARSDGYYDAMDYWGQGTTVTVSSGGGGSGGGGSGGGGSGGGGSDIQMTQSPSSLSASVGDRVTITCRASKSISKYLAWYQQKPGKAPKLLIHSGSSLESGVPSRFSGSGSGTEFTLTISSLQPDDFATYYCQQHIEYPWTFGQGTKVEIKEPKSSDKTHTCPPCPAPPAAAPSVFLFPPKPKDTLMISRTPEVTCVVVDVSHEDPEVKFNWYVDGVEVHNAKTKPREEQYNSTYRVVSVLTVLHQDWLNGKEYKCAVSNKALPAPIEKTISKAKGQPREPQVYTLPPSRDELTKNQVSLWCLVKGFYPSDIAVEWESNGQPENNYKTTPPVLDSDGSFFLYSKLTVDKSRWQQGNVFSCSVMHEALHNHYTQKSLSLSPGGGGSPSDIQMTQSPSSLSASVGDRVTITCRASSSVSYMNWYQQKPGKAPKRWIYDSSKLASGVPSRFSGSGSGTDFTLTISSLQPEDFATYYCQQWSRNPPTFGQGTKVEIKGGGGSGGGGSGGGGSGGGGSQVQLVQSGAEVKKPGASVKVSCKASGYTFTRSTMHWVRQAPGQGLEWIGYINPSSAYTNYAQKFQGRVTLTADKSTSTAYMELSSLRSEDTAVYYCASPQVHYDYNGFPYWGQGTLVTVSS
chain 2: QVQLVQSGAEVKKPGASVKVSCKASGYTFTDYYMHWVRQAPGQGLEWMGYFNPYNDYTRYAQKFQGRVTMTRDTSTSTVYMELSSLRSEDTAVYYCARSDGYYDAMDYWGQGTTVTVSSGGGGSGGGGSGGGGSGGGGSDIQMTQSPSSLSASVGDRVTITCRASKSISKYLAWYQQKPGKAPKLLIHSGSSLESGVPSRFSGSGSGTEFTLTISSLQPDDFATYYCQQHIEYPWTFGQGTKVEIKEPKSSDKTHTCPPCPAPPAAAPSVFLFPPKPKDTLMISRTPEVTCVVVDVSHEDPEVKFNWYVDGVEVHNAKTKPREEQYNSTYRVVSVLTVLHQDWLNGKEYKCAVSNKALPAPIEKTISKAKGQPREPQVYTLPPSRDELTKNQVSLSCAVKGFYPSDIAVEWESNGQPENNYKTTPPVLDSDGSFFLVSKLTVDKSRWQQGNVFSCSVMHEALHNHYTQKSLSLSPG
notes: also called PSMA1108; PSAM01108
In the case of B1, the binding result (with human Fcγ receptor I; in [1]; in [2]; with human Fcγ receptor IIIB; in assay [3]) was “no binding (tested: 4-6 µM)” each time. Moreover, the EC50 in [4] is 1 nM; in [5], 1 nM; in assay [6] it was greater than 210 nM; in assay [7], greater than 200 nM; in assay [8] it was greater than 200 nM; in assay [9], 1 nM. In assay [10], this molecule displayed an EC50 of 4 nM. Moreover, the Max in [8] worked out at 409; in assay [9], 2500; in [10] it was 19500.
